Assay results as given in patent US20240101645A1 (HENRY M JACKSON FOUNDATION FOR THE ADVANCEMENT OF MILITARY …, published 2024).

Target: SARS-CoV-1 S on pseudovirions (Sino 1-11, 28 amino acid C-terminal deletion) (SARS-CoV-1, UniProt P59594 14-1227)
Experiment: cell-based or functional assay

B1: COV_2063 (antibody, V domains shown)
VH: EVQLVESGGGVVQPGRSLRLSCAASGFTFSSYGMHWVRQAPGKGLEWVAVIWYDGSNKYYADSVKGRFTISRDNSKNTLYLQMNSLRAEDTAVYYCARGPLGSNYFNYDAFDIWGQGTMVTVSS
VL: DVVMTQSPLSLPVTLGQPASISCRSSQSLEYSDGNTYLNWFQQRPGQSPRRLIYKVSKRDSGVPDRFSGSGSGSDFTLKISRVEAEDVGVYYCMQGTHWPLTFGGGTKVEIK
IC50, SARS-CoV-1 pseudotyped neutralization: 0.095 µg/mL
